Test results: the supplement of paper PMC11865577

Experiments:
Test in all cases: pull-down binding Z-score (relative to library population); higher = stronger binding
[1] = test system: G-clamp-N3 (biotin conjugate); settings: RNA library: Library-1 (pre-miRNA loops + repeats)
Method in brief: (§1)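 Heat-folded RNA library (1 μg, Cy5 or Cy3 end label, phosphate/NaCl/KCl buffer) was captured for 60 min at 25 °C on streptavidin beads displaying 100 pmol of biotin-conjugated small molecule, then washed three times. The bound fraction, eluted in hot SDS, was hybridised to a DNA barcode microarray at 55.5 °C for 20 h. Z-scores for binding were taken against the library mean and standard deviation after beads-only subtraction and trimmed averaging of replicate barcoded probes.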

[2] = test system: TO-3-N3-2 (biotin conjugate); settings: RNA library: Library-2
Method in brief: as §1

[3] = test system: TO-3-N3 (biotin conjugate); settings: RNA library: Library-2
Method in brief: as §1

[4] = test system: TO-N3-2 (biotin conjugate); settings: RNA library: Library-2
Method in brief: as §1

[5] = test system: TO-N3 (biotin conjugate); settings: RNA library: Library-2
Method in brief: as §1

Sequence | pull-down binding Z-score [1] | pull-down binding Z-score [2] | pull-down binding Z-score [3] | pull-down binding Z-score [4] | pull-down binding Z-score [5]
UUUGCAUCUGGACGACGAAU [hsa-mir-409] | -0.465 | -0.0371 | -0.355 | 0.523 | -0.021
AAAGCCAGGGACCCUGAGAGGCUUU [hsa-mir-6885] | 3.29 | 0.0899 | 0.0246 | 1.24 | 0.556
GGCUGCAGGCCCGGCCCCUCUC [hsa-mir-6787] | 0.112 | 0.126 | 0.378 | 1.59 | 1.1
GAAGCUGUAAGACACAGCUAAGCUUU [hsa-mir-30d] | -0.32 | -0.00751 | -0.376 | 0.0477 | -0.169
GUGUUCACACAUAAUGUGUACACCAUGUGUGUACAC [hsa-mir-5692b] | -0.31 | -0.272 | 0.192 | -0.606 | 0.022
UGAAUAUGUAAUAUAAGUGUAUUG [hsa-mir-450b] | 0.397 | 0.32 | 0.214 | -0.284 | 0.261
GGAGGCCCCGCUCUGCUGCCGACCCUGUGGAGCGGAGGGUGAAGCCUCC [hsa-mir-3180-4] | 1.15 | 0.118 | 0.3 | 1.24 | 0.553
UUUUCUGUCCUGUCCACACAGAAAA [hsa-mir-1537] | -1 | -0.517 | -0.957 | -0.902 | -1.27
AGAACUUUGGUUUU [hsa-mir-4434] | 0.298 | -0.611 | -0.711 | -1.38 | -1.1
CCUUUCCCCUCAGACCAAGG [hsa-mir-3131] | -0.0682 | -0.26 | -0.315 | -0.176 | -0.412
CACACGCUUUAUUUGUGCCGUUUG [hsa-mir-758] | -0.691 | -0.318 | -0.0281 | -0.655 | -0.164
GCUUCUGCGUUAUCUGGAAGG [hsa-mir-4706] | -0.078 | -0.131 | -0.466 | 0.26 | -0.25
UUUAUGCCUGUUAGCAUGAAAAAAGAGGCUGAGAA [hsa-mir-7515] | -0.395 | 0.165 | -0.5 | 0.0418 | -0.368
GUUAGACCUGGCCCUCUGUCUAAU [hsa-mir-429] | -0.787 | -0.136 | 0.355 | 0.3 | 0.564
CUGAGAGUGUCAUGGUGGAGCCUCCG [hsa-mir-4784] | 0.795 | -0.0723 | 0.121 | 1.55 | 0.735
GCAUAUAGAGUAUAUGC [hsa-mir-4657] | 0.625 | 0.0599 | -0.323 | -0.526 | -0.435
GAUGCUGUAUAUCUGAAAGGUAC [hsa-mir-101-2] | -0.649 | -0.144 | -0.357 | 0.383 | -0.126
AAAAUGUUUGUCAUAAACCGUUUU [hsa-mir-335] | -0.914 | -0.302 | -0.185 | -0.934 | -0.158
CUCUGGUCUAUAAUGGGUUAAAUAGUAGAG [hsa-mir-609] | 0.305 | 0.234 | -0.334 | 0.131 | -0.191
CGGUGUGCAAAUGUGUGUGUGCGGUGUUAUGCCG [hsa-mir-4442] | -0.0251 | -0.663 | -0.732 | -0.316 | -0.869
CUUCAGCCCCAGGAAGCCUUGGUCGGGGGCAGGAG [hsa-mir-647] | 0.744 | -0.171 | 0.309 | 0.849 | 0.594
CCCAUAUGGACCUGCUAAGCUAUGGA [hsa-mir-1-1] | -0.475 | -0.0364 | -0.0116 | 0.361 | 0.289
GGAAGACACAUGAGCAGUGCCUCCACUUCACGCCUCUCCC [hsa-mir-6780b] | -1.13 | 0.0363 | 0.265 | 0.746 | 0.543
AGAUCCUGUCUUUCGUAAUCAGCAGCU [hsa-mir-222] | -0.246 | 0.00116 | 0.279 | 0.228 | 0.344

Sequence | pull-down binding Z-score [1] | pull-down binding Z-score [2] | pull-down binding Z-score [3] | pull-down binding Z-score [4] | pull-down binding Z-score [5]
GAAGAUUCUGAAAAUCACUAACU [hsa-mir-6878] | -1.6 | 0.167 | 0.159 | -0.0867 | 0.273
UGGCUGCUUGGGUCAAGUCAGCAGCCA [hsa-mir-449b] | 1.35 | -0.474 | -0.201 | -0.648 | -0.272
GAAGGAAGGCAAGGCUGUCUGUCCAUC [hsa-mir-4800] | -1.01 | 0.513 | 0.852 | 0.685 | 1.03
CUCAGCCUGGAAAAAGCUGAG [hsa-mir-4765] | 0.49 | -0.575 | -0.454 | -0.646 | -0.672
AUCCAGUCCACUUAAUUCUGAGAAAGUCCACAGACUGGAUCGGGUCUUGGAUUUUAGCUGGAUUCAU [hsa-mir-6082] | -0.0473 | -0.223 | -0.796 | 0.4 | -0.258
UUUGCCAUUAUAAUGGCAAA [hsa-mir-548ae-1] | -0.11 | -0.855 | -0.806 | -1.71 | -1.37
GCGGGGGUGGGGGCCUCGCCCUGCUUGGGCCCUCCCUGAC [hsa-mir-6821] | 0.419 | 1.75 | 2.12 | 2.31 | 2.47
GAGGGGCUUACUGCCCUGUGGGGCUCUCUGGACCCAGUGCCAUGCUUCUC [hsa-mir-6728] | 0.541 | -0.363 | -0.224 | 1.23 | 0.295
UUGUGGCAAUACAG [hsa-mir-8068] | 0.635 | -0.166 | -0.437 | -0.0186 | -0.425
CUAUUCAGAAAUGUGGCCUGUGAUUAG [hsa-mir-1295a] | 0.22 | 0.231 | -0.00311 | 0.169 | -0.0755
GCUUCCGCUCUGCAGAGGC [hsa-mir-6822] | -0.531 | -0.487 | 0.134 | -0.438 | 0.0168
UGGAGGCUGCAGUGAGCCGAGAUCGAGCCACUGUACUCCA [hsa-mir-1273e] | 0.0244 | -0.0556 | 0.259 | 1.09 | 1.14
GCUGCCAUCUCCCACUGGCUGC [hsa-mir-4736] | -0.492 | -0.495 | -0.569 | 0.0852 | -0.536
GUGUCCUGAAAUUCACAGGACUG [hsa-mir-4700] | 1.38 | 0.237 | 0.856 | 0.643 | 0.923
CCAAAGAAACUUUUUUGG [hsa-mir-6079] | -0.295 | -0.557 | -0.414 | -1.1 | -0.761
AGAAGCUAAAGUGUAGAUCAAACGCAUAAUGGCUGA [hsa-mir-4500] | -0.364 | 0.195 | 0.197 | 0.233 | 0.65
AGGUAGUGUUUAGUUAUCUACU [hsa-mir-20a] | 1.28 | 0.257 | -0.264 | -0.218 | -0.285
UUGAUUCAGUAAAACAUUCAA [hsa-mir-891b] | -0.189 | -0.0671 | -0.376 | -0.902 | -0.695
CCAUCAAGCCCCACCAGAAGGUGGAGGCCCAGGUGAG [hsa-mir-4721] | -1.36 | -0.479 | 0.105 | 0.864 | 0.16
CUUUUGUUCAAAUAAAAAUGCAAAAG [hsa-mir-651] | -0.842 | -0.367 | -0.729 | -1.25 | -1.06
UCCCAUUUCCACAUGGAGAGUGGAGCCCAGA [hsa-mir-3123] | 1.02 | 0.0927 | 0.384 | 0.671 | 0.639
AUUGUUGCCUCUGCAUGUUACAAU [hsa-mir-8066] | 0.523 | -0.512 | -0.204 | -0.665 | -0.485
UGGGUGGAUCCUCUAUUUCCUUACGUGGGCCACUGG [hsa-mir-432] | 0.632 | -0.013 | 0.45 | 0.845 | 0.729
CCUCUCGGGAACUACAAGUCCCAGGGGG [hsa-mir-2861] | 0.879 | -0.409 | -0.694 | -0.455 | -0.794

Sequence | pull-down binding Z-score [1] | pull-down binding Z-score [2] | pull-down binding Z-score [3] | pull-down binding Z-score [4] | pull-down binding Z-score [5]
CAUACAUUUUGAAUAUGUAUG [hsa-mir-299] | -0.304 | -0.504 | 0.734 | -1.29 | 0.336
GCCUGUGUAGACGGGGACCUGCCCUGCAUGGGCACCCCCUCACUGGC [hsa-mir-6762] | -0.617 | 0.322 | 0.332 | 0.347 | 0.173
UGCUGGUGCUAGAGAGGAAAGCA [hsa-mir-4748] | 1 | 0.315 | 0.426 | 2.22 | 0.985
UGAGCUGUGAUGUUGCUCUCGAGCUGG [hsa-mir-769] | -0.872 | 0.336 | 0.732 | 1.27 | 1.02
CGGGGCGGACGCAGAGCCGCGUUUAGUCUAUCG [hsa-mir-639] | -0.413 | -0.137 | 0.0365 | 1.12 | 0.593
GCGGUUUUUGCCAUUACUUUUCAUUUUUACCAUUAAAAGUAAUGGCAAAAAGCAU [hsa-mir-548q] | -0.112 | 0.225 | -0.964 | -0.56 | -1.09
UGGUGGGAGAGGAGCCCCACUGUGGAAGUCUGACCCCCACA [hsa-mir-6785] | -0.814 | 1.01 | 1.05 | 1.86 | 1.64
CCUUGCCUGUGGCAAGACCACUUCGGUUCAAGG [hsa-mir-4295] | 0.54 | -0.191 | 0.0272 | 0.237 | 0.0379
GGUUUCUUAAAAUGGAAUCU [hsa-mir-1255b-1] | 0.385 | 0.0245 | -0.382 | -0.251 | -0.413
AUGAGCUAAAAAUCCCCAAGCUCU [hsa-mir-4769] | -0.0764 | -0.358 | -0.414 | -0.0561 | -0.477
CCUGUUUUACAAAUAAGGAAAUAAACUCAGG [hsa-mir-1321] | -1.01 | -0.326 | -0.59 | -1.08 | -0.94
AUGUCCCUUUAGUUCAAAGU [hsa-mir-2052] | -2.06 | -0.0713 | -0.246 | -0.324 | -0.283
GCUGUUGGUCGGGUUGUGACAUUGCCCGCUGUGGAGAUAACUGC [hsa-let-7i] | -0.338 | 0.672 | -0.307 | 1.01 | 0.207
CACUCUCCCUAAUGGGGCUGAAGACAGCUCAGGGGCAGGGUG [hsa-mir-4472-1] | 1.88 | -0.583 | -0.357 | 0.191 | -0.273
CAGGGAACUUUAAAACC [hsa-mir-4324] | 0.493 | 0.387 | 0.41 | 0.306 | 0.483
UUUUCCCUUUCUCUUGCCCUGAAA [hsa-mir-4509-1_4509-3_4509-2] | -1 | -0.096 | -0.261 | -0.219 | -0.332
AGCCCUGUUGUUGUCAGAUAGUGU [hsa-mir-550a-2] | -0.331 | 0.21 | 0.198 | 0.179 | 0.216
GCAGUGUCGUGGUCACAGCUUGCUGC [hsa-mir-1273h] | 1.45 | -0.171 | -0.396 | 1.12 | -0.0941
AGCAGUACCAGAUGGUUCUGUGG [hsa-mir-3198-2] | -1.54 | -0.262 | -0.0816 | -0.167 | -0.0604
UCUUAGCACGGGGUCUAAGG [hsa-mir-4747] | 0.0593 | -0.0231 | -0.188 | -0.257 | -0.33
GCUGUGUUGAAUGAUUGGUGAGUUUGUUUGCUCAUUGAUUGAAUCACUGC [hsa-mir-3678] | 0.133 | 0.121 | -0.734 | -0.307 | -0.79
GGCGCUUCUCCUUCUGAACAGAGCGCU [hsa-mir-1251] | -0.609 | -0.182 | -0.462 | -0.171 | -0.423
CAUUUCCUUCAUGAUUAGGAAUACUACUUUGAAAUG [hsa-mir-4712] | -0.338 | -0.179 | -0.641 | -0.896 | -0.856
UAUGCCAUUAAAAGUAAUGGUAAA [hsa-mir-548aj-1] | -0.52 | -0.508 | -0.859 | -1.2 | -1.23
